# Laboratory results reported in patent publication US11590206B2, “Liquid pharmaceutical composition” (SANOFI, priority 2017, dated 2023).
# Key:
# Format in all cases: physicochemical
# [1] = FTIR spectroscopy: ratio of alpha and beta sheets; settings: 5.0 mg/ml and 75 mg/mL named; phosphate buffer, m-cresol, sodium chloride (Table 2)
# Method: The physical and chemical stability of the stored formulations is determined with the help of the following tests: • Dynamic light scattering (DLS) method was applied to access the subvisible particle size distribution • Fourier transform infrared spectroscopy (FTIR) to analyze the ratio of alpha and beta sheets • Chemical stability (purity and impurities), determined by HPLC • Proteins of high molecular weight, determined by HPSEC
# FTIR spectroscopy is a suitable method for the determination of a protein's secondary structure. The vibration giving the most pronounced signal in FTIR spectroscopy is the C═O stretching vibration of amide groups resulting in a signal in the so-called amide I-region (1700-1600 cm^−1). This vibration is sensitive to the hydrogen-bonding pattern, dipole-dipole interactions and the geometry of the polypeptide backbone. […]
# As a consequence, the individual component bands that represent the different structural elements, such as α-helices, β-sheets, turns and irregular structures are often not resolved and difficult to identify in the broad amide I-band contours of the experimentally obtained spectra. […] The absolute values for protein conformation determined by the chemometric method can therefore be systematically biased, however, the repeatability of results for samples of the same protein is usually in the range of +/−2%. […]
# [2] = ThT assay: fibrillation tendency under thermal and mechanical stress
# Method: Investigations were carried out to determine fibrillation tendencies under stress conditions using a ThT assay. […] Amyloid-like structures show a beta-sheet rich structure. Fibrillation of peptide solutions is induced by thermic and mechanical stress. Samples are stressed under defined conditions using Fluoroskan Ascent FL.
# For the tests in Fluoroskan Ascent FL 200 μL sample were placed into 96 well microtiterplate PS, flat bottom, Greiner Fluotrac No. 655076. Plates were sealed with Scotch Tape (Quiagen). […] The kinetic was monitored by measuring fluorescence intensity every 20 minutes.
# Solutions were transferred in 2 mL Eppendorf vials and 20 μL of a 10.1 mM ThT solution in H2O were added to 2 mL of peptide solution to receive a final concentration of 100 μM ThT. For each sample eight replicates were tested.
# [3] = Small angle X-ray scattering (SAXS): oligomer size and shape; settings: in the formulations
# Method: SAXS measurements were performed at a synchrotron light source (DESY Hamburg). The scattering data from all samples were collected loading 20 microliters of solutions into the capillary and flowing the whole volume across the X-ray beam. Per each sample 20 frames of 0.045 s exposure were collected and, after a statistical consistency check, averaged. The corresponding signals collected for the placebo was then subtracted. Each sample measurement was repeated at least twice to ensure reproducibility.
# [4] = Rheology with rotation and capillary rheometer; settings: Table 2 composition, 5.0 mg/ml; shear rates>1/s
# Method: To this end, a composition as described above in Table 2 containing 5.0 mg/ml SEQ ID NO.: 2 was added to a rheometer and subjected to measurement. The experiments were performed with a MCR rotation rheometer (Anton Paar) and with capillary rheometer Kinexus (Malvern). […] High shear rates have no influence on the shear viscosity of the formulation (see also FIG. 7).
substance,measurement,setting,value
"H-dSer-Q-G-T-F-T-S-D-L-S-K-Q-K(γE-x53)-ESKAAQDFIEWLKAGGPSSGAPPPS-NH2 (HXQGTFTSDLSKQKESKAAQDFIEWLKAGGPSSGAPPPS; D-Ser1, K14 gammaE-palmitoyl lipidation, C-terminal amide; Exendin-4 analogue; MOD_RES (2)..(2) Xaa is a D-Ser; MOD_RES (14)..(14) Lys is functionalized at the amino side chain group as Lys((S)-4-carboxy-4-hexadecanoylamino-butyryl); MOD_RES (39)..(39) Ser is modified with an NH2 group) [SEQ ID NO.: 2, γE-x53 is (S)-4-Carboxy-4-hexadecanoylamino-butyryl-]",measured value of alpha sheets (FTIR),[1],48.9%
same,measured value of beta sheets (FTIR),[1],13.1%
same,Fibrillation (ThT fluorescence),"[2]; 1 mg/ml in PBS, 100 h incubation at +37° C. and 500 rpm",negligible fibrillation
same,Fibrillation (ThT fluorescence),"[2]; 5 mg/mL in phosphate buffer, NaCl and m-cresol, pH≈6.6, 100 hours at 37° C. shaking (500 rpm)",no fibrillation was observed
same,Oligomeric state (best fit of SAXS curve),[3],all hexameric
same,"fluid property (shear stress, viscosity vs shear rate)",[4],Newtonian fluid
